In article PMC5814901:

B1: UvrB (Bacillus caldotenax) (natural protein)
chain: MVEGRFQLVAPYEPQGDQPQAIAKLVDGLRRGVKHQTLLGATGTGKTFTISNVIAQVNKPTLVIAHNKTLAGQLYSELKEFFPHNAVEYFVSYYDYYQPEAYVPQTDTYIEKDAKINDEIDKLRHSATSALFERRDVIIVASVSCIYGLGSPEEYRELVVSLRVGMEIERNALLRRLVDIQYDRNDIDFRGTFRVRGDVVEIFPASRDEHCIRVEFFGDEIERIREVDALTGKVLGEREHVAIFPASHFVTREEKMRLAIQNIEQELEERLAELRAQGKLLEAQRLEQRTRYDLEMMREMGFCSGIENYSRHLALRPPGSTPYTLLDYFPDDFLIIVDESHVTLPQLRGMYNGDRARKQVLVDHGFRLPSALDNRPLTFEEFEQKINQIIYVSATPGPYELEHSPGVVEQIIRPTGLLDPTIDVRPTKGQIDDLIGEIRERVERNERTLVTTLTKKMAEDLTDYLKEAGIKVAYLHSEIKTLERIEIIRDLRLGKYDVLVGINLLREGLDIPEVSLVAILDADKEGFLRSERSLIQTIGRAARNANGHVIMYADTITKSMEIAIQETKRRRAIQEEYNRKHGIVPRTVKKEIRDVIRATYAAEETEMYEAKPAAAMTKQEREELIRTLEAEMKEAAKALDFERAAQLRDIIFELKAEG

Columns and labels:
[1] = biological target: UvrAB complex formed beforehand on DNA tightropes (Bacillus caldotenax) (UniProt P56981); assay: single-molecule fluorescence colocalisation on DNA tightropes (two colours); UvrAB complexes first formed on undamaged DNA tightropes with the Qdot on UvrB (unlabelled, non-biotinylated UvrA) or on UvrA; streptavidin-Qdot-labelled biotin-UvrC of another colour then added; dual-coloured complexes counted; room temperature; ABC buffer
[2] = biological target: UvrAB complex formed beforehand on DNA tightropes (Bacillus caldotenax) (UniProt P56981); assay: single-molecule fluorescence colocalisation on DNA tightropes (three colours); UvrA, UvrB and UvrC (1:1:0.5 nM) labelled with different Qdots (565, 605, 655 nm), incubated together, then added to undamaged λ-DNA tightropes; room temperature; ABC buffer (50 mM Tris-HCl pH 7.5, 50 mM KCl, 1 mM ATP, 10 mM MgCl2, 10 mM DTT)
[3] = biological target: UvrA (Bacillus caldotenax) (Bacillus caldotenax); assay: as above
[4] = biological target: UvrC (Bacillus caldotenax) (Bacillus caldotenax); assay: as above

Molecule	occurrence of the dual-colour complex among DNA-bound Qdots [1] [%]	occurrence of the triple-coloured complex among DNA-bound Qdots [2] [%]	occurrence of the complex among DNA-bound Qdots [3] [%]	occurrence of the complex among DNA-bound Qdots [4] [%]
UvrC (Bacillus caldotenax) (natural protein)	16.6	1.6	–	–
B1	–	–	6.7	1.6
